Numbering of substitutions follows the chain as printed. Like-named read-outs stand apart in the source and are kept apart here. Where no end group is shown, it is not given here.
How the values were obtained:
[1] = target: T1, human complement factor H (HCFH) (human, UniProt P08603 19-1231); test: indirect ELISA
T1 construct: unrelated protein in ELISA

cyclo(CGGGGEKTKGG)-BSA [2] = target: T2, cyclo(CGGGGEKTKGG)-BSA (also: conjugated to BSA); test: indirect ELISA
T2 construct: also called ASPEP(4,2)-C-BSA
T2 peptide: cyclo(CGGGGEKTKGG)

Human Transferrin [3] = target: T3, Human Transferrin (human, UniProt P02787 20-698); test: indirect ELISA
T3 construct: irrelevant antigen in ELISA; also called HT

Linear CGGGEKTKGG-BSA = target: T4, Linear CGGGEKTKGG-BSA (also: conjugated to BSA); test: indirect ELISA
T4 construct: linear peptide-BSA screening antigen; also called ASPEP(3,2)-L-BSA
T4 peptide: CGGGEKTKGG

cyclo(CGGGGEKTKGG), free = target: T5, cyclo(CGGGGEKTKGG), free (cyclized via a head-to-tail (C-G) amide bond); test: indirect ELISA
T5 construct: free cyclic 4,2 construct; also called 4,2-Free-C
T5 peptide: CGGGGEKTKGG

cyclo(CGGGEKTKGG)-BSA [4] = target: T6, cyclo(CGGGEKTKGG)-BSA (also: conjugated to BSA via maleimide-based coupling); test: indirect ELISA
T6 construct: also called ASPEP(3,2)-C-BSA
T6 peptide: cyclo(CGGGEKTKGG)

[5] = target: T7, Bovine serum albumin (BSA) (bovine, UniProt P02769 25-607); test: indirect ELISA
T7 construct: carrier protein alone as ELISA control

[6] = target: T8, alpha-synuclein oligomers (UniProt P37840 1-140); test: cell-based or functional assay
Linear CGTKEQGGGG-BSA = target: T9, Linear CGTKEQGGGG-BSA (also: conjugated to BSA); test: indirect ELISA
T9 construct: linear peptide-BSA screening antigen; also called (1,4)-L-BSA; 1,4-L-BSA
T9 peptide: CGTKEQGGGG

cyclo(CGGTKEQGGGG)-BSA [7] = target: T10, cyclo(CGGTKEQGGGG)-BSA (also: conjugated to BSA via maleimide-based coupling); test: indirect ELISA
T10 construct: also called (2,4)-C-BSA; 2,4-C-BSA
T10 peptide: cyclo(CGGTKEQGGGG)

cyclo(CGTKEQGGGG)-BSA [8] = target: T11, cyclo(CGTKEQGGGG)-BSA (also: conjugated to BSA via maleimide-based coupling); test: indirect ELISA
T11 construct: also called (1,4)-C-BSA; 1,4-C-BSA
T11 peptide: cyclo(CGTKEQGGGG)

[9] = target: T8, alpha-synuclein oligomers; test: Millipore SMC, antibody-coated magnetic particles, detection with labeled 4D6
[10] = target: T12, alpha-synuclein sonicated preformed fibrils (soluble fibrils) (human, UniProt P37840 1-140); test: as above
cyclo(CGGTKEQGGGG), free = target: T13, cyclo(CGGTKEQGGGG), free (cyclized via a head-to-tail (C-G) amide bond); test: indirect ELISA
T13 construct: free cyclic peptide, not conjugated; also called (2,4)-C-FREE
T13 peptide: CGGTKEQGGGG

Human Transferrin [11] = target: T3, Human Transferrin; test: indirect ELISA; remark: listed apart in the source
cyclo(CGGTKEQGGGG)-BSA [12] = target: T10, cyclo(CGGTKEQGGGG)-BSA; test: indirect ELISA
[13] = target: T7, Bovine serum albumin (BSA); test: indirect ELISA; remark: listed apart in the source
HSA [14] = target: T14, HSA (human, UniProt P02768 25-609); test: indirect ELISA
T14 construct: irrelevant antigen in ELISA; read as human serum albumin; also called Hum; SA; HAS

[15] = target: T12, alpha-synuclein sonicated preformed …; test: cell-based or functional assay
[16] = target: alpha-synuclein in Lewy Body Disease (LBD/DLB) brain (human, UniProt P37840 1-140); test: dot blot signal on LBD brain extract over control brain extract
[17] = target: T1, human complement factor H (HCFH); test: indirect ELISA; remark: listed apart in the source
cyclo(CGGGGEKTKGG)-BSA [18] = target: T2, cyclo(CGGGGEKTKGG)-BSA; test: indirect ELISA
Human Transferrin [19] = target: T3, Human Transferrin; test: indirect ELISA; remark: listed apart in the source
cyclo(CGGGEKTKGG)-BSA [20] = target: T6, cyclo(CGGGEKTKGG)-BSA; test: indirect ELISA
[21] = target: T7, Bovine serum albumin (BSA); test: indirect ELISA; remark: listed apart in the source
[22] = target: T12, alpha-synuclein sonicated preformed …; test: SPR, antibody immobilized (~5000 RU), serial dilutions of analyte
[23] = target: T8, alpha-synuclein oligomers; test: SPR, antibody immobilized, kinetic fitting, 1:1 model
[24] = target: T12, alpha-synuclein sonicated preformed …; test: as above
[25] = target: T12, alpha-synuclein sonicated preformed …
[26] = target: T8, alpha-synuclein oligomers; test: SPR, antibody immobilized, kinetic fitting, 1:1 model; antigen form: oligomers
cyclo(CGGTKEQGG)-BSA [27] = target: T15, cyclo(CGGTKEQGG)-BSA (also: conjugated to BSA via maleimide-based coupling); test: indirect ELISA
T15 construct: also called (2,2)-C-BSA; (2, 2) C-BSA
T15 peptide: cyclo(CGGTKEQGG)

Human Transferrin [28] = target: T3, Human Transferrin; test: indirect ELISA; remark: listed apart in the source
HSA [29] = target: T14, HSA; test: indirect ELISA; remark: listed apart in the source
cyclo(CGGTKEQGGGG)-BSA [30] = target: T10, cyclo(CGGTKEQGGGG)-BSA; test: indirect ELISA
cyclo(CGGTKEQGG)-BSA [31] = target: T15, cyclo(CGGTKEQGG)-BSA; test: indirect ELISA
Linear CGGTKEQGG-BSA = target: T16, Linear CGGTKEQGG-BSA (also: conjugated to BSA); test: indirect ELISA
T16 construct: linear peptide-BSA screening antigen; also called (2,2)-L-BSA; (2, 2) L-BSA
T16 peptide: CGGTKEQGG

cyclo(CGTKEQGGGG)-BSA [32] = target: T11, cyclo(CGTKEQGGGG)-BSA; test: indirect ELISA
Linear CGGTKEQGGGG-BSA = target: T17, Linear CGGTKEQGGGG-BSA (also: conjugated to BSA); test: indirect ELISA
T17 construct: linear peptide-BSA screening antigen; also called (2,4)-L-BSA; 2,4-L-BSA
T17 peptide: CGGTKEQGGGG

cyclo(CGTKEQGGGG), free [33] = target: T18, cyclo(CGTKEQGGGG), free (cyclized via a head-to-tail (C-G) amide bond); test: indirect ELISA
T18 construct: free cyclic peptide, not conjugated; also called (1,4)-C-Free
T18 peptide: CGTKEQGGGG

[34] = target: T7, Bovine serum albumin (BSA); test: indirect ELISA; remark: listed apart in the source
cyclo(CGTKEQGGGG), free [35] = target: T18, cyclo(CGTKEQGGGG), free; test: indirect ELISA

T3 sequence (P02787 20-698 limits assumed): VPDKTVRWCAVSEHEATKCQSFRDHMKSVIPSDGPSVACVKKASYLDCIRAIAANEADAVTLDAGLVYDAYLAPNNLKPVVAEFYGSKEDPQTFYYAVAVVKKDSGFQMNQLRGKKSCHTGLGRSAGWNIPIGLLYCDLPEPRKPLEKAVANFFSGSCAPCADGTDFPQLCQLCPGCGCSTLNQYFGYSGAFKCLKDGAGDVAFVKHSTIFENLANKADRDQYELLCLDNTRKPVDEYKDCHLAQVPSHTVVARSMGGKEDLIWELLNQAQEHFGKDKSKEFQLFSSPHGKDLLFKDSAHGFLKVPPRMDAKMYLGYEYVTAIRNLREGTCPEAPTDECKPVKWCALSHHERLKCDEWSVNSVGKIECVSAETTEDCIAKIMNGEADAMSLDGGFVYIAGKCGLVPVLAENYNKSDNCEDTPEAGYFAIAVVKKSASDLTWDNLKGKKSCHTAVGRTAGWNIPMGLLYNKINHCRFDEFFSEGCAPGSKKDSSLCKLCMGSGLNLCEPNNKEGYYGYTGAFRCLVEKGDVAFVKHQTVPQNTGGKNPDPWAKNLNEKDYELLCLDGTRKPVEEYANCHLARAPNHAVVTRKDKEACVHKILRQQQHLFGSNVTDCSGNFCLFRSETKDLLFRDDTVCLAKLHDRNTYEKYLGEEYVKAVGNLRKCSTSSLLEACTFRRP
T7 sequence (P02769 25-607 limits assumed): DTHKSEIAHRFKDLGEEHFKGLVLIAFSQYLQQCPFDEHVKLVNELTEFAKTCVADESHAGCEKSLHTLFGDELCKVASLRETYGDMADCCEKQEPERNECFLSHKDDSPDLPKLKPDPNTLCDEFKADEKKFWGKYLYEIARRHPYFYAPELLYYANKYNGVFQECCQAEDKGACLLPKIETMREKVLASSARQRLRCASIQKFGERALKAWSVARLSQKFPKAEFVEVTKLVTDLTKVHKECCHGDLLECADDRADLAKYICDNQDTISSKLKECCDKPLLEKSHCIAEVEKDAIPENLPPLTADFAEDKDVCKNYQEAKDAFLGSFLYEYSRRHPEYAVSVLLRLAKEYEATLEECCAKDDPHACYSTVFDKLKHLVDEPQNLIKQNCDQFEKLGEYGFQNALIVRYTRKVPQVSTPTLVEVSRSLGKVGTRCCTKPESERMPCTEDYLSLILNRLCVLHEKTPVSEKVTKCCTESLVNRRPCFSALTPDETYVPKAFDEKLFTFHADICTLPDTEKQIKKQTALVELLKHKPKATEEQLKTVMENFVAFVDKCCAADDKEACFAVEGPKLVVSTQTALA
T1 sequence (P08603 19-1231 limits assumed): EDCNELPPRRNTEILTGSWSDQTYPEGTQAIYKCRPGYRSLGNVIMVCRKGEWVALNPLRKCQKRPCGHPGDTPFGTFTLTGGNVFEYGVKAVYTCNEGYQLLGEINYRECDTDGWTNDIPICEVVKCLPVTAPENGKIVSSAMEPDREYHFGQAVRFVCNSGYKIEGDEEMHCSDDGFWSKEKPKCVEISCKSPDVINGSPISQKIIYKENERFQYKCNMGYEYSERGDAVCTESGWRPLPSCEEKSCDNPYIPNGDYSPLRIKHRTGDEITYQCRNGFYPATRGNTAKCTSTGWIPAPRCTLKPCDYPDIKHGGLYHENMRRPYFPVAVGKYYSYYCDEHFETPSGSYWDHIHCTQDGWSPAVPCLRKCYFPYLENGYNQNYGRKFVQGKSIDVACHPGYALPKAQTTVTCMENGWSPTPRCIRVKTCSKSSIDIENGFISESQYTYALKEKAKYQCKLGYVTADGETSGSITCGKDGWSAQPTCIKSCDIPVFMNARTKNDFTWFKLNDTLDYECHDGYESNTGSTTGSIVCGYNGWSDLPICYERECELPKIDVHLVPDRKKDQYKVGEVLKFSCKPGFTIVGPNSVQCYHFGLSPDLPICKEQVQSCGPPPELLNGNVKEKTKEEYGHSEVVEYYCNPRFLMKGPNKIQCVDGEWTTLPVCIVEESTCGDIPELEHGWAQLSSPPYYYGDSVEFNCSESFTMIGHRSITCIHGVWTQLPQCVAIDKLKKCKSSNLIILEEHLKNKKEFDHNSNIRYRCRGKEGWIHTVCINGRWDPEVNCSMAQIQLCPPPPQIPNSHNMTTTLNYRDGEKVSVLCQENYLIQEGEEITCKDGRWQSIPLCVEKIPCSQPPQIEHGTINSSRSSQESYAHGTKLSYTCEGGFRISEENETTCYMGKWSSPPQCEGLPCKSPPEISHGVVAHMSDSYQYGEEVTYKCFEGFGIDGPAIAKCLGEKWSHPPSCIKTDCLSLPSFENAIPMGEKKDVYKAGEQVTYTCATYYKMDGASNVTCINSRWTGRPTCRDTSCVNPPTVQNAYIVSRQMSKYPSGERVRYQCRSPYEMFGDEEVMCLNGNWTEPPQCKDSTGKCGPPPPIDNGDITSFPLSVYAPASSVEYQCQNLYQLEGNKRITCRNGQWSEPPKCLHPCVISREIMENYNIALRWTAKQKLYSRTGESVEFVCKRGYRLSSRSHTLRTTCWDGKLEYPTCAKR

B1: 11B6 (antibody, V domains shown)
VH: QVQLQQSGAELMKPGASVKISCKATGYTFSSYWVEWVKLRPGHGLEWIGEIFPGSGSANYNEKFKGKATFTADTSSNTAYMQLSSLTSEDSAVYYCTSRWYPDYFEYWGQGTTLTVSS
VL: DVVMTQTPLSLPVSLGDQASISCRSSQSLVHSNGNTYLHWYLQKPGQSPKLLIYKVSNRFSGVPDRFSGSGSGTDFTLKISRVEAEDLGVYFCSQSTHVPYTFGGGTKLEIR
ELISA reading [1]: 0.042 | ELISA reading (cyclo(CGGGGEKTKGG)-BSA [2]): 1.59 | ELISA reading (Human Transferrin [3]): 0.051 | ELISA reading (Linear CGGGEKTKGG-BSA): 0.044 | ELISA reading (cyclo(CGGGGEKTKGG), free): 1.27 | ELISA reading (cyclo(CGGGEKTKGG)-BSA [4]): 0.047 | ELISA reading [5]: 0.041 | dopaminergic neuron survival, antibody at 250 nM [6]: 81 % of the control

B2: 9D8 (antibody, V domains shown)
VH: QVTLKESGPGILQPSQTLSLTCSFSGFSLSTSGMGVGWIRQPSGKGLEWLAHIWWDGDKRYNPALRSRLTISKDTSSNQVFLKIASVDTADTATYYCTRIVVPNFLFTYWGQGTLVTVSA
VL: DVLMTQTPLSLPVSLGDQASISCRSSQSIVQSNGNTYLEWYLQKPGQSPNLLIYKVSNRFSGVPDRFSGSGSGTDFTLKISRVEAEDLGVYYCFQGSHVPFTFGSGTKLEIK
ELISA reading (Linear CGTKEQGGGG-BSA): 0.043 | ELISA reading (cyclo(CGGTKEQGGGG)-BSA [7]): 0.726 | ELISA reading (cyclo(CGTKEQGGGG)-BSA [8]): 0.048 | dopaminergic neuron survival, antibody at 250 nM [6]: 96.5 % of the control | fold selectivity for oligomers versus monomers (from LLoQ) [9]: 9300 fold | fold selectivity for fibrils versus monomers (from LLoQ) [10]: 93300 fold | ELISA reading (cyclo(CGGTKEQGGGG), free): 0.227 | ELISA reading (Human Transferrin [11]): 0.06 | ELISA reading (cyclo(CGGTKEQGGGG)-BSA [12]): 1.18 | ELISA reading [13]: 0.055 | ELISA reading (HSA [14]): 0.054

B3: 3C11 (antibody, V domains shown)
VH: EVQLQQSGAELVKPGASVKLSCTASGFNIKDTYIHWMKQRPEQGLEWIGRIDPANGNTKYDPEFQDKATIAADTSSNTAYLQLSSLTSEDTAVYYCSNWDYFDYWGQGTALTVSS
VL: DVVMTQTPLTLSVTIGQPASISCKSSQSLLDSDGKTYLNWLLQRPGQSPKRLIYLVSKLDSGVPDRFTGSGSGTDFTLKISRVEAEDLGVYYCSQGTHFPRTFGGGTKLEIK
dopaminergic neuron survival, antibody at 50 nM [6]: 89.6 % of the control | endogenous phosphorylated α-syn aggregates in neurons exposed to PFFs, antibody at 0.05 µM [15]: 153 % of the control | Fold of reactivity LBD vs. Control (LBD / Control) [16]: 26.6 fold | ELISA reading [17]: 0.064 | ELISA reading (cyclo(CGGGGEKTKGG)-BSA [18]): 0.567 | ELISA reading (Human Transferrin [19]): 0.054 | ELISA reading (cyclo(CGGGEKTKGG)-BSA [20]): 1.17 | ELISA reading [21]: 0.052

B4: 12B12 (antibody, V domains shown)
VH: B3 VH with M37V, K59N, E63K, A71T, L83F, A110T
VL: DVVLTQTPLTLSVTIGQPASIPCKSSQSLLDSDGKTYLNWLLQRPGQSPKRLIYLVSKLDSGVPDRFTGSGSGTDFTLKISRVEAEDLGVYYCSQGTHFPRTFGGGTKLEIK
fold binding affinity, soluble fibril relative to monomer [22]: > 10 fold | fold binding affinity, soluble fibril relative to tetramer [22]: > 20 fold | dopaminergic neuron survival, antibody at 250 nM [6]: 92.6 % of the control | endogenous phosphorylated α-syn aggregates in neurons exposed to PFFs, antibody at 0.05 µM [15]: 145 % of the control | koff [23]: 0.0013 s⁻¹ | kon [23]: 1320 M⁻¹ s⁻¹ | koff [24]: 2.09e-05 s⁻¹ | kon [24]: 2530 M⁻¹ s⁻¹ | Kd [25]: 8 nM | Fold of reactivity LBD vs. Control (LBD / Control) [16]: 20.3 fold | ELISA reading [17]: 0.059 | ELISA reading (cyclo(CGGGGEKTKGG)-BSA [18]): 0.851 | ELISA reading (Human Transferrin [19]): 0.045 | ELISA reading (cyclo(CGGGEKTKGG)-BSA [20]): 1.28 | ELISA reading [21]: 0.055 | Kd [26]: 985 nM

B5: 12G1 (antibody, V domains shown)
VH: QIQLVQSGPELRKPGETVRISCKASGYTFTTAGMQWVQKMPGKGLKWIGWINTHSGVPKYAEDFKGRFAFSLETSASTAYLQISNLKNEDTATYFCARTSWAPYWGQGTLVTVSA
VL: not shown
ELISA reading (cyclo(CGGTKEQGGGG)-BSA [7]): 0.756 | ELISA reading (cyclo(CGGTKEQGG)-BSA [27]): 1.61 | ELISA reading (cyclo(CGTKEQGGGG)-BSA [8]): 2.07 | fold binding affinity, soluble fibril relative to monomer [22]: > 50 fold | dopaminergic neuron survival, antibody at 250 nM [6]: 90.6 % of the control | endogenous phosphorylated α-syn aggregates in neurons exposed to PFFs, antibody at 0.05 µM [15]: 148 % of the control | Kd [23]: 1610 nM | koff [23]: 0.00155 s⁻¹ | kon [23]: 966 M⁻¹ s⁻¹ | Kd [24]: 20 nM | koff [24]: 5.62e-05 s⁻¹ | kon [24]: 2820 M⁻¹ s⁻¹ | fold selectivity for oligomers versus monomers (from LLoQ) [9]: 35000 fold | fold selectivity for fibrils versus monomers (from LLoQ) [10]: 175000 fold | ELISA reading (cyclo(CGGTKEQGGGG), free): 0.437 | ELISA reading (Human Transferrin [11]): 0.071 | ELISA reading (cyclo(CGGTKEQGGGG)-BSA [12]): 1.01 | ELISA reading [13]: 0.06 | ELISA reading (HSA [14]): 0.052

B6: 2E9 (antibody, V domains shown)
VH: EVKLLESGGGLVQPGGSLKLSCAASGFDFSRYWMNWVRQAPGKGLEWIGEINPHSSTINYAPSLKDKFIISRDNAKNTLYLQMSKVRSEDTALYYCGRGDYVDYWGLGTTLTVSS
VL: DIVMSQSPSSLAVSVGEKVTMSCKSSQSLLYSRNQKNYLAWYQQKPGQSPKLLIYWASTRESGVPDRFTGSGSGTDFTLTISSVKADDLAVYYCQQYYSYPRTFGGGTKLEIK
notes: also called test clone 2E9; test mAb 2E9
ELISA reading (Human Transferrin [28]): 0.054 | ELISA reading (HSA [29]): 0.044 | Kd [23]: 431 nM | Kd [24]: 9 nM | ELISA reading (cyclo(CGGTKEQGGGG)-BSA [30]): 0.055 | ELISA reading (cyclo(CGGTKEQGG)-BSA [31]): 0.047 | ELISA reading (Linear CGGTKEQGG-BSA): 0.051 | ELISA reading (cyclo(CGTKEQGGGG)-BSA [32]): 1.91 | ELISA reading (Linear CGGTKEQGGGG-BSA): 0.048

B7: 10D5 (antibody, V domains shown)
VH: EVQLQQSGAELVRPGALVKLSCKGSGFNIKDYYMSWVKQRPEQGLEWIGWIDPENDNTIYDSKFQGKASITADTSSNTAYLQFSSLTPEDTAVYYCAMGGFTYWGQGTLVTVSA
VL: not shown
dopaminergic neuron survival, antibody at 250 nM [6]: 88.9 % of the control | ELISA reading (cyclo(CGTKEQGGGG), free [33]): 1.25 | ELISA reading (Human Transferrin [28]): 0.06 | ELISA reading [34]: 0.066 | ELISA reading (HSA [29]): 0.065 | fold selectivity for oligomers versus monomers (from LLoQ) [9]: 9300 fold | fold selectivity for fibrils versus monomers (from LLoQ) [10]: 11200 fold | ELISA reading (cyclo(CGTKEQGGGG), free [35]): 1.25 | ELISA reading (cyclo(CGGTKEQGGGG)-BSA [30]): 1.95 | ELISA reading (cyclo(CGGTKEQGG)-BSA [31]): 0.064 | ELISA reading (Linear CGGTKEQGG-BSA): 0.045 | ELISA reading (cyclo(CGTKEQGGGG)-BSA [32]): 2.04
